Experimental data published in article PMC10281000 (Chembiochem : a European journal of chemical biology, 2021).

B1: PA0810, L-2-haloacid dehalogenase from Pseudomonas aeruginosa PAO1 (enzyme)
chain: MRAILFDVFGTLVDWRSSLIEQFQALERELGGTLPCVELTDRWRQQYKPAMDRVRNGQAPWQHLDQLHRQSLEALAGEFGLALDEALLQRITGFWHRLRPWPDTLAGMHALKADYWLAALSNGNTALMLDVARHAGLPWDMLLCADLFGHYKPDPQVYLGACRLLDLPPQEVMLCAAHNYDLKAARALGLKTAFIARPLEYGPGQSQDLAAEQDWDLIASDLLDLHRQLAASA

Columns and labels:
Bpro0530 = settings: 100 mM Tris-SO4, pH 8.5, 30 °C; defluorination
ST2570 = ST2570 (Sulfurisphaera tokodaii, UniProt Q96XE7); settings: 100 mM Tris-SO4, pH 8.5, 30 °C; defluorination
Rha0230 = Rha0230 (Rhodococcus jostii, UniProt Q0SK70); settings: 100 mM Tris-SO4, pH 8.5, 30 °C; defluorination
O=C(O)CCl = test: purified protein; settings: pH 8.5; 30.0 °C
crystal structure = target: the molecule itself; test: crystal structure

Molecule	Km (O=C(O)CCl)	kcat/Km (O=C(O)CCl)	other results
O=C(O)CF [fluoroacetate]	–	–	Km (Bpro0530): 20.3 ± 0.3 mM; Km (ST2570): 2.4 ± 0.7 mM; Km (Rha0230): 18 ± 3 mM
Rha0230 (Rhodococcus jostii RHA1)	18 ± 2 mM	37 ± 6 M⁻¹ s⁻¹	–
Rha0230 (Rhodococcus jostii RHA1; Y61F)	14 ± 2 mM	73 ± 13 M⁻¹ s⁻¹	–
ST2570 (Sulfurisphaera tokodaii str. 7)	0.00353 ± 3e-05 mM	73000 ± 1100 M⁻¹ s⁻¹	–
B1	–	–	binding result (crystal structure): binds
